The values below come from patent US20230303698A1 (published 2023).

In assay [1] the target is T1, human PD-L1 (human, UniProt Q9NZQ7 19-290). Briefly: FACS; panel A. Background: In flow cytometry, cells or beads pass a laser one at a time.
The target in assay [2] is T1, human PD-L1. The assay is described as follows: FACS; panel C.
Assay [3] has as its target T1, human PD-L1. Briefly: FACS binding to CHO-K1/hPD-L1 cells.
The target of assay [4] is T1, human PD-L1. Briefly: FACS; panel B.
Assay [5] has as its target T2, human 4-1BB (human, UniProt Q07011 24-255). Briefly: FACS; FIG. 5.
Assay [6] addresses T2, human 4-1BB. The assay is described as follows: FACS; panel B.
In assay [7] the target is T2, human 4-1BB. Briefly: FACS; panel A.
In assay [8] the target is T2, human 4-1BB. The assay is described as follows: FACS; panel B. The source holds these as a separate data set.
Assay [9] has as its target T2, human 4-1BB. The assay is described as follows: FACS.
Assay [10] has as its target T2, human 4-1BB. Briefly: FACS; panel C.
Assay [11] deals with T2, human 4-1BB. The assay is described as follows: FACS; panel A. This is another data set of the same source.
The target of assay [12] is T2, human 4-1BB. The assay is described as follows: FACS; FIG. 6.

T1 sequence (Q9NZQ7 19-290): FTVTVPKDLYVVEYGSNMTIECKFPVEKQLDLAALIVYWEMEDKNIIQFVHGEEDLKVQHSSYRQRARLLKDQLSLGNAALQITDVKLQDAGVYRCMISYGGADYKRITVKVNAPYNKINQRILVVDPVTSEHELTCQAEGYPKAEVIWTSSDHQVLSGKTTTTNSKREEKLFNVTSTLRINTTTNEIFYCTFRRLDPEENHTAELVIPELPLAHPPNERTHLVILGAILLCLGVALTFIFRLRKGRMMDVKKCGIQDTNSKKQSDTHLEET

B1: PR000265, anti-PD-L1 91G3H5H3(D54E), hIgG1(N297A) (antibody, V domains shown)
VH: EVQLVESGGGLVQPGGSLRLSCAASGFTFSSYWMSWVRQAPGKGLEWVANIKQEGSEKYYVDSVKGRFTISRDNAKNSLYLQMNSLRAEDTAVYYCARDRAVAGAFDIWGQGTMVTVSS
VL: DIQMTQSPSTLSASVGDRVTVTCRASQSIYIWLAWYQQKPGKAPNLLIYKASSLETGVPSRFSGSGSGTEFTLTISSLQPDDFATYYCQQYYGSSRTFGQGTKVEIKR
One may read the EC50 as the concentration giving half of the maximal effect. The low end stands for a more potent agent, the high end for a less potent agent. Regarding B1, the EC50 turned out to be 0.781 nM with human PD-L1 [1], 1.56 nM in the assay with human PD-L1 [2], 1.26 nM in the assay with human PD-L1 [3] and 0.356 nM in the assay with human PD-L1 [4].

B2: Anti-4-1BB monoclonal antibody urelumab analog (antibody, V domains shown)
VH: QVQLQQWGAGLLKPSETLSLTCAVYGGSFSGYYWSWIRQSPEKGLEWIGEINHGGYVTYNPSLESRVTISVDTSKNQFSLKLSSVTAADTAVYYCARDYGPGNYDWYFDLWGRGTLVTVSS
VL: EIVLTQSPATLSLSPGERATLSCRASQSVSSYLAWYQQKPGQAPRLLIYDASNRATGIPARFSGSGSGTDFTLTISSLEPEDFAVYYCQQRSNWPPALTFGGGTKVEIKR
On to B2, for which the EC50 is 0.459 nM with human 4-1BB [5]; 0.794 nM with human 4-1BB [6]; 0.424 nM in the assay with human 4-1BB [7]; 0.347 nM with human 4-1BB [8]; 1.51 nM in the assay with human 4-1BB [9]; 1.51 nM with human 4-1BB [10]. The values for the EC50 in the assay with human 4-1BB [11] and in the assay with human 4-1BB [12] were 1.01 nM and 0.459 nM, respectively.
